Here are results for 7 molecules from patent publication US20230340128A1 (Xencor, published 2023).

Where a chain is given by its changes, count along the chain named. Read-outs that look alike come from different tables or passages of the source.

The target of test [1] is T1, human mesothelin (MSLN) (human, UniProt Q13421 296-580, limits assumed).
T1 construct: Antigen of the Octet KD values
Description: KD quoted in the FIG. 25 legend; Octet (BLI) per FIGS. 20-21. (In general: In BLI a coated tip is dipped into the sample, and binding shifts an interference pattern.)

Test [2] has as its target T2, MSLN on OVCAR8 cells (~90K MSLN antigens/cell) (UniProt Q13421 296-598). Description: binding to OVCAR8 cells, MFI APC against mAb concentration.
Test [3] addresses T3, CD3.
T3 chain 1: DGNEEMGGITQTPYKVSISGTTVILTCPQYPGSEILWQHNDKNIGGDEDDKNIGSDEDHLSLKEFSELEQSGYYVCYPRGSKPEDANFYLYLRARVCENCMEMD
T3 chain 2: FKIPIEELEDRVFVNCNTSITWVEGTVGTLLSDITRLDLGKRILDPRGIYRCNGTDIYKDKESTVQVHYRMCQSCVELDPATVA
Description: label in the legend box: nominal affinity of the CD3 binding domain; method not stated on the sheet.

Test [4] deals with T1, human mesothelin (MSLN). Kind of test: label in the legend box: nominal affinity of the MSLN binding domain (paragraph 422 calls such label values KD); method not stated on the sheet.
Test [5] addresses T4, MSLN on OVCAR8 cells (~90K MSLN antigens/cell) (UniProt Q13421 296-598).
T4 construct: whole, on cells; Endogenous expression on a cancer cell line
Kind of test: flow cytometry on OVCAR8 cells, 1 h at 4 C, anti-human-Fc A647 secondary. As to the method:
(§1) In this experiment, 50,000 OVCAR8 cells (˜90K MSLN antigens/cell) were seeded per well in a plate. Anti-human-Fc secondary (A647) was added for 30 min at 4° C., and binding was assessed via FACs. FIG. 39C depicts that the CD28×MSLN bsAbs in neither 1+1-Fab-scFv format nor the 2+1 mAb-scFv format antibodies show any significant off target binding. In this experiment, 50,000 SKOV3 cells (˜9K MSLN antigens/cell) were seeded per well in a plate. Anti-human-Fc secondary (A647) was added for 30 min at 4° C., and binding was assessed via FACs.
(§2) In order to assess the binding of MSLN×CD28 bsAbs in different formats, an experiment was conducted in which 50,000 OVCAR8 cells (˜90K MSLN antigens/cell) were seeded per well in a plate. Anti-human-Fc secondary (A647) was added for 30 min at 4° C., and binding was assessed via FACs.
(In general: A flow cytometer gives signals particle by particle.)

Test [6] addresses T4, MSLN on OVCAR8 cells (~90K MSLN …). The description is as above. On the procedure: as §1, §2
The source holds these as a separate data set.

For test [7], the target named is T5, human CD28 (human, UniProt P10747 19-152, limits assumed).
T5 construct: also called Cluster of Differentiation 28; Tp44
Kind of test: label in the legend box: nominal affinity of the CD28 binding domain (paragraph 422 calls such label values KD); method not stated on the sheet.

In test [8] the target is T2, MSLN on OVCAR8 cells (~90K MSLN …). Description: binding to OVCAR8 cells, MFI APC against mAb concentration. The source holds these as a separate data set.
Test [9] concerns the target T5, human CD28. Kind of test: label in the legend box: nominal affinity of the CD28 binding domain (paragraph 422 calls such label values KD); method not stated on the sheet. The source holds these as a separate data set.
Test [10] concerns the target T1, human mesothelin (MSLN). Kind of test: label in the legend box: nominal affinity of the MSLN binding domain (paragraph 422 calls such label values KD); method not stated on the sheet. The source holds these as a separate data set.

B1: XENP32852 (bispecific antibody)
chain 1: QVQLVQSGAEVKKPGASVKVSCKASGYTFTSYWMHWVRQAPGQGLEWMGMIHPNSDNTIYYEKFQGRVTMTVDKSISTAYMELSRLRSDDTAVYYCAIIITPVVPKFDYWGQGTLVTVSSASTKGPSVFPLAPSSKSTSGGTAALGCLVKDYFPEPVTVSWNSGALTSGVHTFPAVLQSSGLYSLSSVVTVPSSSLGTQTYICNVNHKPSDTKVDKKVEPKSCDKTHTCPPCPAPPVAGPSVFLFPPKPKDTLMISRTPEVTCVVVDVKHEDPEVKFNWYVDGVEVHNAKTKPREEEYNSTYRVVSVLTVLHQDWLNGKEYKCKVSNKALPAPIEKTISKAKGQPREPQVYTLPPSREEMTKNQVSLTCDVSGFYPSDIAVEWESDGQPENNYKTTPPVLDSDGSFFLYSKLTVDKSRWEQGDVFSCSVMHEALHNHYTQKSLSLSPGK
chain 2: QVQLVQSGAEVKKPGASVKVSCKASGYTFTSYWMHWVRQAPGQGLEWMGMIHPNSDNTIYYEKFQGRVTMTVDKSISTAYMELSRLRSDDTAVYYCAIIITPVVPKFDYWGQGTLVTVSSASTKGPSVFPLAPSSKSTSGGTAALGCLVKDYFPEPVTVSWNSGALTSGVHTFPAVLQSSGLYSLSSVVTVPSSSLGTQTYICNVNHKPSNTKVDKKVEPKSCGGGGSGGGGSQAVVTQEPSLTVSPGGTVTLTCGSSTGAVTTSNYANWVQQKPGKSPRGLIGGTNKRAPGVPARFSGSLLGGKAALTISGAQPEDEADYYCALWYSNHWVFGGGTKLTVLGKPGSGKPGSGKPGSGKPGSEVQLVESGGGLVQPGGSLRLSCAASGFTFSTYAMNWVRQAPGKGLEWVGRIRSKANNYATYYADSVKGRFTISRDDSKNTLYLQMNSLRAEDTAVYYCVRHGNFGDSYVSWFAYWGQGTLVTVSSGGGGSGGGGSKTHTCPPCPAPPVAGPSVFLFPPKPKDTLMISRTPEVTCVVVDVKHEDPEVKFNWYVDGVEVHNAKTKPREEQYNSTYRVVSVLTVLHQDWLNGKEYKCKVSNKALPAPIEKTISKAKGQPREPQVYTLPPSREQMTKNQVKLTCLVKGFYPSDIAVEWESNGQPENNYKTTPPVLDSDGSFFLYSKLTVDKSRWQQGNVFSCSVMHEALHNHYTQKSLSLSPGK
chain 3: DIVMTQSPDSLAVSLGERATINCKASHDVGTSVAWYQQKPGQSPKLLIYWASTRHTGVPDRFTGSGSGTDFTLTISSLQAEDVAVYFCQQYYSYPLTFGAGTKLEIKRTVAAPSVFIFPPSDEQLKSGTASVVCLLNNFYPREAKVQWKVDNALQSGNSQESVTEQDSKDSTYSLSSTLTLSKADYEKHKVYACEVTHQGLSSPVTKSFNRGEC
In test [1], B1 displayed a Kd of 3.9 nM. In addition, the “EC50 (read off the curve)” value in test [2] was around 0.06 µg/mL.

B2: XENP32947 (bispecific antibody)
chain 1: B1 chain 1 with M50W
chain 2: B1 chain 2 with M50W
chain 3: B1 chain 3 with Y92S
Consider B2, for which the values for the Kd in test [1] and in [3] were 9.2 nM and 30 nM, respectively.

B3: XENP39566 (bispecific antibody)
heavy: B1 chain 1 with M50W, M430L, N436S
scFv-Fc: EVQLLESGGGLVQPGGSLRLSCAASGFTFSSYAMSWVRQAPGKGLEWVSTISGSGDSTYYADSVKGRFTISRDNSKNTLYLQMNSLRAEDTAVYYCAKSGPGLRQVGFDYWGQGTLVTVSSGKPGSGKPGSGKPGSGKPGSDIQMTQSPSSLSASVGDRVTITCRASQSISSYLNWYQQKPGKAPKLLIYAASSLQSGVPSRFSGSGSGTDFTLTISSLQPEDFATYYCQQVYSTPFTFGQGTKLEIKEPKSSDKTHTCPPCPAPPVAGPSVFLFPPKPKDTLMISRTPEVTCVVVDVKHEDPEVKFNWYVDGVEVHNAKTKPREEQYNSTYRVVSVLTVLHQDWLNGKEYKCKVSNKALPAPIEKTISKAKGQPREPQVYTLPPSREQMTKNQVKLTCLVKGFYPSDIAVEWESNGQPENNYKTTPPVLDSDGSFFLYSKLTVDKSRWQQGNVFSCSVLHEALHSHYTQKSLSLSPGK
light: B1 chain 3 with Y92S
notes: also called XENP39566 MSLN (9 nM) x CD28 (180 nM) 1+1 Fab-scFv-Fc
Turning to B3, the values for the Kd in [4] and in test [7] were 9 nM and 180 nM, respectively. Further, the “EC50 (read off the curve)” value in test [5] and in test [6] was around 4 µg/mL each time.

B4: XENP32853 (bispecific antibody)
chain 1: B1 chain 1
chain 2: QVQLVQSGAEVKKPGASVKVSCKASGYTFTSYWMHWVRQAPGQGLEWMGMIHPNSDNTIYYEKFQGRVTMTVDKSISTAYMELSRLRSDDTAVYYCAIIITPVVPKFDYWGQGTLVTVSSASTKGPSVFPLAPSSKSTSGGTAALGCLVKDYFPEPVTVSWNSGALTSGVHTFPAVLQSSGLYSLSSVVTVPSSSLGTQTYICNVNHKPSNTKVDKKVEPKSCGGGGSGGGGSQAVVTQEPSLTVSPGGTVTLTCGSSTGAVTTSNYANWVQQKPGKSPRGLIGGTNKRAPGVPARFSGSLLGGKAALTISGAQPEDEADYYCALWYSNHWVFGGGTKLTVLGKPGSGKPGSGKPGSGKPGSEVQLVESGGGLVQPGGSLRLSCAASGFTFSTYAMNWVRQAPGKGLEWVGRIRSKYNNYATYYADSVKGRFTISRDDSKNTLYLQMNSLRAEDTAVYYCVRHGNFGDEYVSWFAYWGQGTLVTVSSEPKSSDKTHTCPPCPAPPVAGPSVFLFPPKPKDTLMISRTPEVTCVVVDVKHEDPEVKFNWYVDGVEVHNAKTKPREEQYNSTYRVVSVLTVLHQDWLNGKEYKCKVSNKALPAPIEKTISKAKGQPREPQVYTLPPSREQMTKNQVKLTCLVKGFYPSDIAVEWESNGQPENNYKTTPPVLDSDGSFFLYSKLTVDKSRWQQGNVFSCSVMHEALHNHYTQKSLSLSPGK
chain 3: B1 chain 3
Take B4: the affinity in test [1], expressed as Kd, was 3.9 nM. Moreover, the “EC50 (read off the curve)” value in [2] was around 0.06 µg/mL.

B5: XENP32751 (bispecific antibody)
chain 1: B1 chain 1
chain 2: B1 chain 2
chain 3: B1 chain 3 with S32Y, Y92S
Molecule B5 gave a Kd in [1] of around 12.8 nM. The concentration giving a half-maximal response (EC50 (read off the curve)) in test [8] was around 0.05 µg/mL.

B6: XENP39569 (bispecific antibody)
heavy: B1 chain 1 with M50W, M430L, N436S
scFv-Fc: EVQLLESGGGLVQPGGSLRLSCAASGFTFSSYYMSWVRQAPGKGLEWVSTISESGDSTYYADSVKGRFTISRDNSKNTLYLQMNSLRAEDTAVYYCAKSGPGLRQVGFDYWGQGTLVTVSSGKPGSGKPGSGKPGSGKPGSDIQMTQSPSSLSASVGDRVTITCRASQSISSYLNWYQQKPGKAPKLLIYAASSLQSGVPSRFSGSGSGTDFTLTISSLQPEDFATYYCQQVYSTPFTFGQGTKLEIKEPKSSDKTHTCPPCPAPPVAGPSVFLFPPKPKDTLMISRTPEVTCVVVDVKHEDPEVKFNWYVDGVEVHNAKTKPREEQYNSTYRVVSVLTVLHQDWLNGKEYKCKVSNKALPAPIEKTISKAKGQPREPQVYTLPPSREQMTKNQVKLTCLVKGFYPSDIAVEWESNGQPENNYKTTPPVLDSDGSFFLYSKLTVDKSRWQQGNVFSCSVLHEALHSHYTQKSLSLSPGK
light: B1 chain 3 with T31Q, Y92S
notes: also called XENP39569 MSLN (90 nM) x CD28 (37 nM) 1+1
On to B6, for which the Kd came to 37 nM in test [9] and 90 nM in test [10].

B7: XENP39554 (bispecific antibody)
heavy: B1 chain 1 with M430L, N436S
scFv-Fc: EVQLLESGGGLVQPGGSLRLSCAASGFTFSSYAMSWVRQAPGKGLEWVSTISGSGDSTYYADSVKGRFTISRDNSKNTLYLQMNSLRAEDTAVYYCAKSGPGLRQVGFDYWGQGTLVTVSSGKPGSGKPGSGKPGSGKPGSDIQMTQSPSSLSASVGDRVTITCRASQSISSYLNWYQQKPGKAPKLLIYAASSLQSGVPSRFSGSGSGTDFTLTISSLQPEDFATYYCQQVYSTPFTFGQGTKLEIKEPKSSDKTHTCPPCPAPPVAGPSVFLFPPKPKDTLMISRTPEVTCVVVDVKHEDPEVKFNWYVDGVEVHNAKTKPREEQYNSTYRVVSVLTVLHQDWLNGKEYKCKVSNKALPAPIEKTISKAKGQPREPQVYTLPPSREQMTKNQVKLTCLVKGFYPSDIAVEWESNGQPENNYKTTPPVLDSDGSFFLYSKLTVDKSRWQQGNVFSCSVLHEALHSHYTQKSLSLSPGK
light: B1 chain 3 with Y92S
notes: also called XENP39554 MSLN (0.3 nM) x CD28 (180 nM) 1+1 Fab-scFv-Fc
As for B7, the Kd in [4] worked out at 0.3 nM; in test [7], 180 nM. In addition, the “EC50 (read off the curve)” value in test [5] and in [6] was around 0.01 µg/mL each time.

One may read the Kd as a measure of binding affinity in units of concentration. High values mean lower affinity, low ones higher affinity. One may read the EC50 (read off the curve) as the midpoint of the concentration-response curve. Lower therefore signals greater potency.
